What is called Km is the concentration of substrate that gives half-maximal velocity.

Consider one substance from article doi:10.1101/2020.08.16.253419v1.

This data set relates to Nc1nc2c(ncn2[C@@H]2O[C@H](COP(=O)(O)OP(=O)(O)OP(=O)(O)O)[C@@H](O)[C@H]2O)c(=O)[nH]1. The data set can be described thus: malachite green. As to conditions: 20 mM Tris pH 8.0, 200 mM KCl, 5 mM MgCl2, 37 °C. Format: biochemical, Streptococcus thermophilus.

Regarding “StNFeoB (Streptococcus thermophilus LMG 18311; E66Q/E67Q)”, the Km came out at 187 ± 20 µM.
